Laboratory results as given in publication PMC4550541 (Protein Engineering, Design and Selection, 2015).

Target: HER2 (extracellular domain only), soluble, recombinantly expressed, biotinylated (human) (UniProt P04626)
Assay: BLI; Octet Red; biotinylated HER2 (10 μg/ml) loaded on streptavidin biosensors, DARPins in solution (eight concentrations, highest 50 nM); PBS pH 7.4, 0.01% BSA, 0.01% Tween 20; 1:1 Langmuir model, global kinetic fit

Kd: 0.39 nM
koff: 0.00037 s⁻¹
kon: 950000 M⁻¹ s⁻¹
B1: DARPin F1 (designed binder)
chain: DLGKKLLEAARAGEDDEVRVLMANGADVNAKDEYGLAPLYHATAHGHLEIVEVLLKNGADVNAVDAIGFTPLHLAAFIGHLEIAEVLLRHGADVNAQDKFGKTAFDISIDNVNEDLAEILQKL
notes: source: E. coli M15 (pQE30), purified (His trap; SEC on Superdex 75 for large scale); not shown: His6, N-terminal, kept
